From patent publication US20070010428A1, “Inhibitors of signal transduction and activator of transcription 3” (priority 2004, published 2007)

Legend:
Stat3 = Stat3 (UniProt P40763); assay: fluorescence polarization competition
[1] = target: Stat3 in IL-6 stimulated HepG2 hepatoma cells (UniProt P40763); assay: cell-based or functional assay
Chain of Stat3 in IL-6 stimulated HepG2 hepatoma cells (P40763 2-770 limits assumed): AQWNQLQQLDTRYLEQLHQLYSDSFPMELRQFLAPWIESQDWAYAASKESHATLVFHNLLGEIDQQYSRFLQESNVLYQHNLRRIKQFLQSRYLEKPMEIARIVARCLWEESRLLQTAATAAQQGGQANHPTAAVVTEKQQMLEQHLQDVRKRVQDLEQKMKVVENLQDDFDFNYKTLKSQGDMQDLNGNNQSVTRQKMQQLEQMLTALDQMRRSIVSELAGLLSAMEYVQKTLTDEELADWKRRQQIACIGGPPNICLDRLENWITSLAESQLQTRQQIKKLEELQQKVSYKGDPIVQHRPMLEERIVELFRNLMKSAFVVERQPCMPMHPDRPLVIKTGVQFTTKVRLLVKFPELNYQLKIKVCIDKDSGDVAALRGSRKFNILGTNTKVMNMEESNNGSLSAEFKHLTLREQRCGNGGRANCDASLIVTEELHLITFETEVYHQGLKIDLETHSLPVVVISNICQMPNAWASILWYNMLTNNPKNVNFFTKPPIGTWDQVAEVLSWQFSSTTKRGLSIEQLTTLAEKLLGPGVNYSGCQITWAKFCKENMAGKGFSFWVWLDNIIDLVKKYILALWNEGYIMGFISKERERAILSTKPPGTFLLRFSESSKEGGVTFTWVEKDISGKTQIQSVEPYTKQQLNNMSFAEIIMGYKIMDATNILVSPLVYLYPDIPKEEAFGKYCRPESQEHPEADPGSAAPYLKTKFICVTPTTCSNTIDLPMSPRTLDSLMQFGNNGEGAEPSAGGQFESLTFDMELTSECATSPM

Chain of Stat3 (P40763 whole entry): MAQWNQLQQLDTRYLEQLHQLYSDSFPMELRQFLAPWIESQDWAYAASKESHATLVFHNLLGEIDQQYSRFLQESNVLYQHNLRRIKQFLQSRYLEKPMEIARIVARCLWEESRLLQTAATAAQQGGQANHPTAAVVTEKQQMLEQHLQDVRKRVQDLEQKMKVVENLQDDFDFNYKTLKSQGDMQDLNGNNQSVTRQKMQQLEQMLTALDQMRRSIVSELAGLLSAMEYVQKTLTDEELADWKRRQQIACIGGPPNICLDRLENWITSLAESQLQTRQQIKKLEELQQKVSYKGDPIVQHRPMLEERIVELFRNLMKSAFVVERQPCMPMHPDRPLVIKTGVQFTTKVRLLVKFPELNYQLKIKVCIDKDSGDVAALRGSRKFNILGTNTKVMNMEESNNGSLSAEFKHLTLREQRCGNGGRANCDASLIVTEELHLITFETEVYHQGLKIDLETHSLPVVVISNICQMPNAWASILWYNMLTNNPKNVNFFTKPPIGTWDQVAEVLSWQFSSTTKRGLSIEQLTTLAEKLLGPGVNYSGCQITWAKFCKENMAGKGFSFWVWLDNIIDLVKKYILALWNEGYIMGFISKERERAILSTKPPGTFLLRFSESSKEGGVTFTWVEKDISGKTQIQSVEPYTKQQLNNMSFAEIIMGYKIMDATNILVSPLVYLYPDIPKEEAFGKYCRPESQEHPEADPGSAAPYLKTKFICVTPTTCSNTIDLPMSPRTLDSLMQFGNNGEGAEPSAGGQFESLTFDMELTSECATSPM

| IC50 (Stat3) | Substance | other results |
| --- | --- | --- |
| 200 nM | Ac-pTyr-Haic-Gln-Thr-NH2 (10, DRCIV-35B) | – |
| – | Ac-pTyr-Leu-Pro-Gln-Thr-Val-mts (peptide) | IL-6 stimulated luciferase reporter under the Stat3-responsive alpha2-macroglobulin promoter, HEPG2 cells, peptide at 50 and 100 µM (% of that of IL-6) [1]: 60 to 70 |
| 200 nM | Ac-pTyr-Leu-methanoPro-Gln-Thr-NH2 (14, DRCIV-39B) | – |
| 2000 nM | F2PmCinn-Cha-Pro-Gln-NHBn (8, PM-88D) | – |
| – | F2PmCinn-Leu-Pro-Gln-Thr-Val-Ala-Ala-Val-Leu-Leu-Pro-Val-Leu-Leu-Ala-Ala-Pro-NH2 (peptide; the values are: luciferase activity remaining) | IL-6 stimulated luciferase reporter under the Stat3-responsive alpha2-macroglobulin promoter, HEPG2 cells, peptide at 50 µM [1]: 50%; IL-6 stimulated luciferase reporter under the Stat3-responsive alpha2-macroglobulin promoter, HEPG2 cells, peptide at 100 µM [1]: 25% |
| 50 nM | pCinn-Cha-Pro-Gln-NHBn (7, PM-66D) | – |
| 110 nM | pCinn-Cha-methanoPro-Gln-NHBn (15, PM-84D) | – |
| 110 nM | pCinn-Leu-Pro-Gln-Thr-NH2 (5, PM-50D) | – |
| 100 nM | pInd-Cha-Pro-Gln-NHBn (9, PM-67D) | – |
